Assay [1] concerns the target T1, soluble human ILT2-ECD (human, UniProt Q8NHL6 24-461).
T1 construct: also called LILRB1 extracellular domain
The assay is described as follows: SPR (Biacore) as described in Example 3. The procedure: (§1) The binding affinities of anti-ILT2 and anti-ILT4 antibodies were measured using a Biacore system (GE Healthcare LifeSciences). Equilibrium dissociation constant (KD) measurements were carried out with purified antibodies to evaluate their binding to human ILT2, human ILT4, and rhesus ILT2. Briefly, purified anti-ILT2 antibody 27F9, anti-ILT4 antibodies 47C8 and 48A5, and anti-ILT2/ILT4 antibodies 47H6, 51A1, 64A12, 73C4, and 73D1 were captured on a Sensor Chip Protein A (GE HealthCare). The surface of the Biacore Sensor Chip Protein A consists of a carboxymethylated dextran matrix with a recombinant Protein A variant covalently attached. Soluble human ILT2-ECD, human ILT4-ECD, or rhesus ILT2-ECD were injected at a flow rate of 30 μL/min at 25° C. The ILT2 or ILT4 proteins were used at concentrations ranging from 1.6-200 nM in PBS-P buffer with 2 fold dilutions. Kinetic data were collected over time and fit using the simultaneous global fit equation to yield affinity constants (KD values) for each antibody.
(§2) The binding affinities of the humanized antibodies to human ILT2 and human ILT4 were measured using a Biacore system as described herein. The binding affinities of antibodies Hz47H6.v2, Hz64A12, and Hz73D1.v1 are shown in Table 11 as compared with the parental antibodies.

Assay [2] addresses T2, soluble human ILT4-ECD (human, UniProt Q8N423 22-460).
T2 construct: also called LILRB2 extracellular domain
The assay is described as follows: SPR (Biacore) as described in Example 3. As to the method: as §1, §2

The target in assay [3] is T1, soluble human ILT2-ECD. Kind of assay: SPR (Biacore), antibody captured on Protein A chip, soluble ILT-ECD injected (1.6-200 nM), 25 C. As to the method: as §1
In general terms: Surface plasmon resonance follows binding to a sensor surface in real time, without labels.

In assay [4] the target is T2, soluble human ILT4-ECD. The description is as above. The procedure: as §1
Assay [5] concerns the target T1, soluble human ILT2-ECD. Kind of assay: SPR (Biacore) as described in Example 3, low resolution parameters. As to the method:
as §1, §2

In assay [6] the target is T2, soluble human ILT4-ECD. Described as above. The procedure: as §1, §2
Assay [7] concerns the target T1, soluble human ILT2-ECD. Kind of assay: SPR (Biacore), antibody captured on Protein A chip, soluble ILT-ECD injected, 25 C, low resolution parameters. As to the method: as §1
For assay [8], the target named is T2, soluble human ILT4-ECD. The description is as above. As to the method: as §1
The target of assay [9] is T3, cynomolgus monkey ILT2 on cells (cynomolgus monkey).
T3 construct: also called cyno ILT2; ILT2 on cyno CD14+ monocytes
Kind of assay: flow cytometry, fluorescently labelled antibody on CD14+ monocytes of cyno PBMC, donor Cyno 1, geometric MFI. As to the method: (§3) The binding of anti-ILT2/ILT4 antibodies to monocytes was evaluated. The binding of exemplary anti-ILT2/ILT4 antibody 73D1 and the humanized version Hz73D1.v1 to the CD14+ monocyte population of human and cyno PBMC were determined by flow cytometry analysis. Briefly, human or cyno PBMCs (from 2 donors each) were thawed, washed in media (RPMI, 10% FBS, L-glutamine, pen/strep), and resuspended in fresh media. PBMCs were stained with a cocktail of labeled antibodies to differentiate between the different cell types. 1×10⁶ cells/well were stained with fluorescently-labelled 73D1 or Hz73D1.v1 antibody and incubated on ice. The cells were washed with ice-cold reagents and immediately analyzed by flow cytometry. The geometric mean fluorescence intensity for CD14+ monocytes was calculated for each sample. […] For example, the 50% effective concentration (EC₅₀) of Hz73D1.v1 was 8.8 nM with human monocytes and 1.8 nM with cyno monocytes.
Background: Flow cytometry measures light scatter and fluorescence of single cells or particles in a stream.

For assay [10], the target named is T3, cynomolgus monkey ILT2 on cells. Kind of assay: flow cytometry, fluorescently labelled antibody on CD14+ monocytes of cyno PBMC, donor Cyno 2, geometric MFI. The procedure:
as §3

The target in a further assay is T4, human ILT4 on cells (human, UniProt Q8N423 22-597).
T4 construct: also called LILRB2; human ILT4 expressed on 293T cells
The assay is described as follows: flow cytometry, fluorescently labelled antibody on immune cell subsets of PBMC / red-cell-depleted whole blood. As to the method: Flow cytometry analysis of blood immune cells was performed on human and cyno PBMC and whole blood. PBMC were prepared from a leukopak (Allcells Inc.) by centrifugation through ficoll, washing with PBS and freezing in cryopreservation buffer in liquid nitrogen until use. Whole blood (Allcells Inc.) was obtained fresh and red blood cells (RBC) depleted using ammonium chloride RBC lysing solution (Biolegend). PBMC or whole blood samples were stained with a fluorescently labeled antibody panel to distinguish various immune subsets (monocytes, B cells, NK cells, CD4+ and CD8+ T cells, neutrophils and eosinophils). Samples were further stained with fluorescently labeled isotype, 27F9 (ILT2 specific), 48A5 (ILT4 specific), 73D1, and Hz73D1.v1. The number of ILT2 and ILT4 molecules per cell of each immune subset was estimated by incubation with Quantum Simply Cellular microspheres followed by flow cytometry analysis.

Changes are numbered by the printed parent chain.

T1 sequence (Q8NHL6 24-461): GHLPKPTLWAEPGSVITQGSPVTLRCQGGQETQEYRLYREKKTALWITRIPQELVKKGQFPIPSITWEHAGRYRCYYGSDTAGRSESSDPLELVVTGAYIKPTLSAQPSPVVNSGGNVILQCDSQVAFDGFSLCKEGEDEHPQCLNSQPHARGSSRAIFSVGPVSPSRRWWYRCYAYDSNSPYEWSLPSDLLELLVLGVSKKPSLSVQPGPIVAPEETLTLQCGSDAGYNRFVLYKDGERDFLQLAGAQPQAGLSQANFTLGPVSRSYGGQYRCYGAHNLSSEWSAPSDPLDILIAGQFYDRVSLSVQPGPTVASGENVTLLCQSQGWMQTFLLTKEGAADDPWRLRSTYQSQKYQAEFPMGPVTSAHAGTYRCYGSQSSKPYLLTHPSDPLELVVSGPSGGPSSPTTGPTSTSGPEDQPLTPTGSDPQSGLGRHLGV
T2 sequence (Q8N423 other isoform, or with tags, fused parts or gaps): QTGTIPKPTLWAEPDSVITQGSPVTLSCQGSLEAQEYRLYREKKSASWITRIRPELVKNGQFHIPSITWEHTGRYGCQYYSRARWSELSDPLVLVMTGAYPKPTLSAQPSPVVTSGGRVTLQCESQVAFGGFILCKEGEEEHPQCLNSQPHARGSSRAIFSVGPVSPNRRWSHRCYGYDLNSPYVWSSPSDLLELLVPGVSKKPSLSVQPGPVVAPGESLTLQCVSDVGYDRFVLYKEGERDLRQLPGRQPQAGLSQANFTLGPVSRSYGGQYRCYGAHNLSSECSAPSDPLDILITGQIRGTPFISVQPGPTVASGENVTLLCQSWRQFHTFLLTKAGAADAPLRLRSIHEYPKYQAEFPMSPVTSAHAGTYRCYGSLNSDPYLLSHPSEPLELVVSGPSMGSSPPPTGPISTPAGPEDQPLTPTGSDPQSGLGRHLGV
T3 sequence (chain, as listed by the source): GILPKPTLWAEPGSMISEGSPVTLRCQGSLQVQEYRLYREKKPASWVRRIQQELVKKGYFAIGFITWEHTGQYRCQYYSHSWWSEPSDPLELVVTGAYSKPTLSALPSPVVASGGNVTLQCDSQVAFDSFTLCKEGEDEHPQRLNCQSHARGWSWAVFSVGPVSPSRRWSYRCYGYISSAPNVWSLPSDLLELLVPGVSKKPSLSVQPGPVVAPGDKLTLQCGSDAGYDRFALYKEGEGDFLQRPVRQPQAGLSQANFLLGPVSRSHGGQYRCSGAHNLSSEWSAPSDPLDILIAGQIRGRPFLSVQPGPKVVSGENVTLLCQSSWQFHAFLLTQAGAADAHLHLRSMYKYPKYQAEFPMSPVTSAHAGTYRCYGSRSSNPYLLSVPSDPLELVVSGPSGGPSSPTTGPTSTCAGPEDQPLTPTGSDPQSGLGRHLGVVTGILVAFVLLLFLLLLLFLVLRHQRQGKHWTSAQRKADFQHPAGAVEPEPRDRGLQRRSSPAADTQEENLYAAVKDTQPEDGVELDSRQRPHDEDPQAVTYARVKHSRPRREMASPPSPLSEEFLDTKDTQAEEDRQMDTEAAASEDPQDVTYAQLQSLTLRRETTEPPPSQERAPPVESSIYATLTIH
T4 sequence (Q8N423 other isoform, or with tags, fused parts or gaps): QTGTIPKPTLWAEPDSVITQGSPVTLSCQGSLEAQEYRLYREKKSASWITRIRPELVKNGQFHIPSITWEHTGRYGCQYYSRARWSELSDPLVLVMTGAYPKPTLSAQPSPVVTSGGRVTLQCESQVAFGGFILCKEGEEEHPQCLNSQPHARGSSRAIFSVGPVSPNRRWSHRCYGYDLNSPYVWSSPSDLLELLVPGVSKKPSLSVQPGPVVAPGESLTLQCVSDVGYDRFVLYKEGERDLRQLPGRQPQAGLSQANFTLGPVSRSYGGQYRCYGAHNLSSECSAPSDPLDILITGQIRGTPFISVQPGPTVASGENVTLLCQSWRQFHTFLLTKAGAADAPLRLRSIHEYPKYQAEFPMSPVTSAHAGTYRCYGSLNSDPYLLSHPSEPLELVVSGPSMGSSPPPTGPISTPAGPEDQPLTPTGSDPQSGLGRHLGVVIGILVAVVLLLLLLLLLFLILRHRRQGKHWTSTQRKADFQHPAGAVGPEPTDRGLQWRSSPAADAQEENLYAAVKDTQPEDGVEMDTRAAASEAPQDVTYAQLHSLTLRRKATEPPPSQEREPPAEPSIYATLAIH

B1: humanized anti-ILT2/ILT4 antibody Hz47H6.v2 (antibody, human IgG1, kappa, N297G, V domains shown)
VH: QVQLVQSGAEVKKPGASVKVSCKASGYTFTDYYMNWVRQAPGQRLEWIGDFNPNNAGTTYNQKFEGRVTITVDKSASTAYMELSSLRSEDTAVYYCARGRFYYGSLYSFDYWGQGTLVTVSS
VL: DIQMTQSPSSLSASVGDRVTITCRASGNIHNYLAWYQQKPGKAPKLLIYNAKTLADGVPSRFSGSGSGTDFTLTISSLQPEDFATYYCQHFWTSITFGPGTKVDIKR
The term Kd denotes the equilibrium constant for the complex coming apart. A word on the koff: it is the first-order rate constant of dissociation. A word on the kon: it is the second-order rate constant of association. In the assay with soluble human ILT2-ECD [1], B1 displayed a Kd of 4 nM, an off-rate constant (koff) of 0.0009 s⁻¹ and a kon of 230000 M⁻¹ s⁻¹. For the same molecule, in the assay with soluble human ILT4-ECD [2], the Kd is 2 nM, the koff was 0.00018 s⁻¹ and the kon turned out to be 87000 M⁻¹ s⁻¹.

B2: anti-ILT2/ILT4 antibody 47H6 (antibody, V domains shown)
VH: EVQLQQSGPELVKPGASVKISCKASGYTFTDYYMNWVKQSHGKSLEWIGDFNPNNGGTTYNQKFEGKATLTVDKSSNTAYMDLRSLTSEDSAVYYCARGRFYYGSLYSFDYWGQGTTLTVSS
VL: DIQMTQSPASLSASVGETVTITCRASGNIHNYLAWYQQKQGKSPHLLVYNAKTLADGVPSRFSGSGSGTQYSLKINNLQPEDFGSYYCQHFWTSITFGAGTKLDLK
notes: Mouse hybridoma antibody
Take B2: the Kd stood at 0.2 nM with soluble human ILT2-ECD [1], 0.2 nM with soluble human ILT4-ECD [2], 2.1 nM with soluble human ILT2-ECD [3] and 0.76 nM in the assay with soluble human ILT4-ECD [4]. The koff was 2.1e-05 s⁻¹ with soluble human ILT2-ECD [1], 2.1e-05 s⁻¹ in the assay with soluble human ILT4-ECD [2], 8.6e-05 s⁻¹ with soluble human ILT2-ECD [3] and 2.8e-05 s⁻¹ with soluble human ILT4-ECD [4]. In addition, the kon is 100000 M⁻¹ s⁻¹ in the assay with soluble human ILT2-ECD [1], 100000 M⁻¹ s⁻¹ in the assay with soluble human ILT4-ECD [2], 42000 M⁻¹ s⁻¹ with soluble human ILT2-ECD [3] and 37000 M⁻¹ s⁻¹ with soluble human ILT4-ECD [4].

B3: humanized anti-ILT2/ILT4 antibody Hz64A12 (antibody, human IgG1, kappa, N297G, V domains shown)
VH: EVQLVESGGGLVQPGGSLRLSCAASGFTFNTYAMHWVRQAPGKGLEWVARIRSKSSNYATYYADSVKDRFTISRDDAKNSLYLQMNSLRAEDTAVYYCARDGIYYYDTMYYYAMDYWGQGTLVTVSS
VL: NIVLTQSPDSLAVSLGERATINCRASESVDYYGNSFIYWYQQKPGQPPKLLIYFASNLESGVPDRFSGSGSGTDFTLTISSLQAEDVAVYYCQQNNEDPWTFGGGTKVEIKR
notes: Human IgG1 constant region with G at position 297, human kappa
In the assay with soluble human ILT2-ECD [5], B3 yielded a Kd of 1.6 nM, a koff of 0.00014 s⁻¹ and a kon of 93000 M⁻¹ s⁻¹. In the assay with soluble human ILT4-ECD [6], the Kd was below 0.1 nM, the koff is around 1e-05 s⁻¹ and the on-rate (kon) came out at 300000 M⁻¹ s⁻¹.

B4: anti-ILT2/ILT4 antibody 73C4 (antibody, V domains shown)
VH: AVQLQQSGPELVKPGASVKISCKASGYTFTDYYMNWVKQSHGKSLEWIGNVNPNNGGTSYNQKFKGKATLTVDKSSSTAYMELRSLTSEDSAVYYCARREIYFYGTIYYYAMDYWGQGTSVTVSS
VL: DIVLTQSPASLAVSLGQRATISCRASESVDYYGNSFMYWYQQKPGRPPNLLIYFASNLESGVPARFSGSGSRTDFTLTIDPVEADDAATYYCQQNNEDPWTFGGGTKLEIK
notes: Mouse hybridoma antibody
On to B4, for which, in the assay with soluble human ILT2-ECD [7], the dissociation constant (Kd) was below 0.1 nM, the koff is around 1e-05 s⁻¹ and the kon amounted to 31000 M⁻¹ s⁻¹. Besides, in the assay with soluble human ILT4-ECD [8], the dissociation constant Kd was below 0.1 nM, the koff was around 1e-05 s⁻¹ and the on-rate (kon) stood at 97000 M⁻¹ s⁻¹.

B5: anti-ILT2/ILT4 antibody 51A1 (antibody, V domains shown)
VH: EVQLVESGGGLVQPKGSLKLSCAASGFTFNTYAMHWVRQAPGKGLEWVARIRSKSSNYATYYADSVKDRFTISRDDSQSMLYLQMNNLKTEDTAMYYCVRDGIYYYGTMYYYAMDYWGQGTSVTVSS
VL: B4 VL with D1N, R46Q, N49K, D85A, T89S
notes: Mouse hybridoma antibody
In the assay with soluble human ILT2-ECD [3], B5 returned a dissociation constant Kd of 5.8 nM, an off-rate constant (koff) of 0.00022 s⁻¹ and a kon of 39000 M⁻¹ s⁻¹. In the assay with soluble human ILT4-ECD [4], this molecule registered a Kd of 0.2 nM, a koff of 1.4e-05 s⁻¹ and a kon of 68000 M⁻¹ s⁻¹.

B6: anti-ILT2/ILT4 antibody 64A12 (antibody, V domains shown)
VH: B5 VH with G107D
VL: B4 VL with D1N, M37I, R46Q, N49K, D85A, T89S
notes: Mouse hybridoma antibody
Consider B6, for which the equilibrium dissociation constant (Kd) in the assay with soluble human ILT2-ECD [5], with soluble human ILT4-ECD [6], in the assay with soluble human ILT2-ECD [7] and with soluble human ILT4-ECD [8] was below 0.1 nM each time. Further, the koff in the assay with soluble human ILT2-ECD [5], in the assay with soluble human ILT4-ECD [6], with soluble human ILT2-ECD [7] and with soluble human ILT4-ECD [8] was around 1e-05 s⁻¹ throughout. The kon with soluble human ILT2-ECD [5] was determined as 20000 M⁻¹ s⁻¹; in the assay with soluble human ILT4-ECD [6] it was 82000 M⁻¹ s⁻¹; in the assay with soluble human ILT2-ECD [7] it was 20000 M⁻¹ s⁻¹; in the assay with soluble human ILT4-ECD [8] it was 82000 M⁻¹ s⁻¹.

B7: anti-ILT2/ILT4 antibody 73D1 (antibody, V domains shown)
VH: B4 VH with M34I, E46Q, N55D, S59T
VL: B4 VL
notes: Mouse hybridoma antibody; Shares its light chain variable region with 73C4
Broadly, the EC50 (read off the curve) is the concentration needed to bring the measured effect to its halfway point. Consider B7, for which the Kd with soluble human ILT2-ECD [1] is 1.8 nM; in the assay with soluble human ILT4-ECD [2] it was 0.74 nM; with soluble human ILT2-ECD [3], 1.2 nM; in the assay with soluble human ILT4-ECD [4], 0.18 nM. The dissociation rate constant (koff) worked out at 0.00024 s⁻¹ in the assay with soluble human ILT2-ECD [1], 0.0003 s⁻¹ with soluble human ILT4-ECD [2], 6e-05 s⁻¹ with soluble human ILT2-ECD [3] and 5.4e-05 s⁻¹ in the assay with soluble human ILT4-ECD [4]. Besides, the on-rate (kon) with soluble human ILT2-ECD [1] stood at 150000 M⁻¹ s⁻¹; with soluble human ILT4-ECD [2], 400000 M⁻¹ s⁻¹; in the assay with soluble human ILT2-ECD [3], 50000 M⁻¹ s⁻¹; with soluble human ILT4-ECD [4] it was 300000 M⁻¹ s⁻¹. Further, the “EC50 (read off the curve)” value in assay [9] is around 0.7 nM; in [10], around 0.9 nM. Moreover, the binding result with human ILT4 on cells is on record as “binds”.

(Values after US20240025997A1 (NGM BIOPHARMACEUTICALS, published 2024).)
